Measurements published in PMC3521592 (Biochemistry, 2012).
Like-named read-outs stand apart in the source and are kept apart here.

T1: untagged HPV16-E7_(1–98) (human papillomavirus 16 (HPV16)), P03129
T1 chain: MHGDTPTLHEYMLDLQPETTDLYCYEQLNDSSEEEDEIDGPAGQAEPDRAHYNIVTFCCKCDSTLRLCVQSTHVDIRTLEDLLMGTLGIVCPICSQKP

B1: 6xHis-Ad5-E1A_(1–189) (domain or fragment)
chain: MRHIICHGGVITEEMAASLLDQLIEEVLADNLPPPSHFEPPTLHELYDLDVTAPEDPNEEAVSQIFPDSVMLAVQEGIDLLTFPPAPGSPEPPHLSRQPEQPEQRALGPVSMPNLVPEVIDLTCHEAGFPPSDDEDEEGEEFVLDYVEHPGHGCRSCHYHRRNTGDPDIMCSLCYMRTCGMFVYSPVSE
B2: untagged HPV16-E7_(1–51) (domain or fragment)
chain: MHGDTPTLHEYMLDLQPETTDLYCYEQLNDSSEEEDEIDGPAGQAEPDRAH
B3: untagged Ad5-E1A_(1–77) (domain or fragment)
chain: MRHIICHGGVITEEMAASLLDQLIEEVLADNLPPPSHFEPPTLHELYDLDVTAPEDPNEEAVSQIFPDSVMLAVQEG
B4: untagged HPV16-E7_(1–98) (natural protein)
chain: T1 chain
B5: 6xHis-Ad5-E1A_(1–138) (domain or fragment)
chain: MRHIICHGGVITEEMAASLLDQLIEEVLADNLPPPSHFEPPTLHELYDLDVTAPEDPNEEAVSQIFPDSVMLAVQEGIDLLTFPPAPGSPEPPHLSRQPEQPEQRALGPVSMPNLVPEVIDLTCHEAGFPPSDDEDEE

Legend:
[1] = biological target: T2, p300CH1, CH1 domain of human p300 (residues 323–424), untagged (human, UniProt Q09472 323-424); test: AUC
T2 sequence (Q09472 323-424): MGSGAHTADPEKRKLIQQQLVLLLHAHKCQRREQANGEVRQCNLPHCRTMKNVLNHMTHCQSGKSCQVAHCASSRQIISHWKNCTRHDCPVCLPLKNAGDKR

[2] = biological target: T2, p300CH1, CH1 domain of human p300 …; test: AUC; remark: listed apart in the source
[3] = biological target: T2, p300CH1, CH1 domain of human p300 …; test: pull-down
[4] = biological target: T1, untagged HPV16-E7_(1–98) (human …); test: AUC; conditions: remark: other sources report otherwise

Binder | stoichiometry N [1] | stoichiometry N [2] | other results
B1 | 1 |  | 
B2 |  | 1 | 
B3 | 1 |  | 
MHGDTPTLHEYMLDLQPETTDLYCYEQLNDSSEEEDEIDGPAGQAE (domain or fragment) [GST-HPV16-E7_(1–46)] |  |  | binding result [3]: binds
B4 |  | 1 | stoichiometry N [4]: 2
B5 | 1 |  | 
